From patent publication US20220306759A1 (CYTOMX THERAPEUTICS, published 2022)
Read-outs that look alike come from different tables or passages of the source. Values belong to the binder of their own block, whether it stands above or below them.

Key:
[1] = target: T1, recombinant human CD71 protein (human, UniProt P02786 89-760); experiment: ELISA; Kd against CD71 21.12
T1 construct: also called recombinant CD71
Method: (§1) The amount of bound antibody was detected by incubation and detection by goat anti-human antibody conjugated to horseradish peroxidase and Ultra TMB (Thermo Fisher Scientific) detection.

[2] = target: T1, recombinant human CD71 protein; experiment: ELISA, 1 µg/mL recombinant human CD71, uncleaved
Method: as §1

[3] = target: T2, human CD71 (transferrin receptor protein 1, TfR1) on human cell lines (human, UniProt P02786 1-760); experiment: FACS on H292 cells, uncleaved
T2 construct: whole, on cells; also called huCD71
T2 sequence (P02786 whole entry): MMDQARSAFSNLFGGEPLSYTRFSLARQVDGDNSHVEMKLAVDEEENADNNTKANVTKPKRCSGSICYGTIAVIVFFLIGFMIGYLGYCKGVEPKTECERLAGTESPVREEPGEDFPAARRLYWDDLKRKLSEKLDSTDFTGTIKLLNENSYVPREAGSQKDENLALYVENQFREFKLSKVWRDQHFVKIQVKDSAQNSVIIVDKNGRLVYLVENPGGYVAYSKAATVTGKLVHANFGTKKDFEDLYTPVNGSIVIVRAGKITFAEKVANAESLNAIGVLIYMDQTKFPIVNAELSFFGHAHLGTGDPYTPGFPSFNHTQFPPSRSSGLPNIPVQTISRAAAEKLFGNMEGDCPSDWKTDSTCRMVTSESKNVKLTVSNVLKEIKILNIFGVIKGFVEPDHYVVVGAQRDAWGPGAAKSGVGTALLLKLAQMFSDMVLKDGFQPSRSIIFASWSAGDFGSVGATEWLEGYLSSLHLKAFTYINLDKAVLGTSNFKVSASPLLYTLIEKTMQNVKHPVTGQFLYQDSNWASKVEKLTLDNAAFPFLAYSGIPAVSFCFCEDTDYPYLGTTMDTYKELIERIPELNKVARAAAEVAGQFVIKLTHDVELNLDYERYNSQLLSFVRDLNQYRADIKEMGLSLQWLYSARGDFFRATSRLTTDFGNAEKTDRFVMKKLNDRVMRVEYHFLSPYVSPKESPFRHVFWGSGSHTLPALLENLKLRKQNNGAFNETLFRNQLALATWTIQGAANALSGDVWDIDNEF
Method: (§2) In this study, the binding of the antibodies of the present disclosure to the indicated cell lines were performed using a standard FACS labelling method. […] These activatable antibodies include the light chain of the correspondingly named sequence listed above in Table C. The cells were labeled with the indicated test article at the indicated concentrations and subsequently detected with an Alexa Fluor 647 labeled goat anti-human IgG secondary antibody.

[4] = target: T2, human CD71 (transferrin receptor …); experiment: FACS on H292 cells
Method: (§3) In this study, the binding of the antibodies of the present disclosure to the indicated cell lines were performed using a standard FACS labelling method.

[5] = target: T1, recombinant human CD71 protein; experiment: ELISA, 1 µg/mL CD71, uncleaved
Method: as §1

[6] = target: T1, recombinant human CD71 protein; experiment: ELISA; Kd against CD71 21.12; remark: listed apart in the source
Method: as §1

[7] = target: T2, human CD71 (transferrin receptor …); experiment: FACS on HCC1806 cells
Method: as §3

[8] = target: T1, recombinant human CD71 protein; experiment: ELISA, 1 µg/mL CD71 on nickel plates, not activated
Method: as §1

[9] = target: T2, human CD71 (transferrin receptor …); experiment: FACS on MDA MB 231 cells; Kd against CD71-Ab
Method: as §3

[10] = target: T2, human CD71 (transferrin receptor …); experiment: FACS on BxPC3 cells; Kd against CD71-Ab
Method: as §3

[11] = target: T2, human CD71 (transferrin receptor …); experiment: FACS on FaDu cells, uncleaved
Method: as §3

[12] = target: T2, human CD71 (transferrin receptor …); experiment: FACS on FaDu cells; Kd against CD71-Ab
Method: as §3

[13] = target: T2, human CD71 (transferrin receptor …); experiment: FACS on BxPC3 cells, uncleaved
Method: as §3

[14] = target: T2, human CD71 (transferrin receptor …); experiment: FACS on HT29 cells; Kd against CD71-Ab
Method: as §3

[15] = target: T2, human CD71 (transferrin receptor …); experiment: FACS on MDA MB 231 cells, uncleaved
Method: as §3

[16] = target: T2, human CD71 (transferrin receptor …); experiment: FACS on HT29 cells, uncleaved
Method: as §3

[17] = target: T3, cynomolgus monkey CD71 on primary kidney epithelial cells (cynomolgus monkey, UniProt H9EXL1 1-760 (rhesus entry)); experiment: FACS on cynomolgus monkey primary kidney epithelial cells
T3 construct: whole, on cells; also called cyno CD71
T3 sequence (chain, as listed by the source): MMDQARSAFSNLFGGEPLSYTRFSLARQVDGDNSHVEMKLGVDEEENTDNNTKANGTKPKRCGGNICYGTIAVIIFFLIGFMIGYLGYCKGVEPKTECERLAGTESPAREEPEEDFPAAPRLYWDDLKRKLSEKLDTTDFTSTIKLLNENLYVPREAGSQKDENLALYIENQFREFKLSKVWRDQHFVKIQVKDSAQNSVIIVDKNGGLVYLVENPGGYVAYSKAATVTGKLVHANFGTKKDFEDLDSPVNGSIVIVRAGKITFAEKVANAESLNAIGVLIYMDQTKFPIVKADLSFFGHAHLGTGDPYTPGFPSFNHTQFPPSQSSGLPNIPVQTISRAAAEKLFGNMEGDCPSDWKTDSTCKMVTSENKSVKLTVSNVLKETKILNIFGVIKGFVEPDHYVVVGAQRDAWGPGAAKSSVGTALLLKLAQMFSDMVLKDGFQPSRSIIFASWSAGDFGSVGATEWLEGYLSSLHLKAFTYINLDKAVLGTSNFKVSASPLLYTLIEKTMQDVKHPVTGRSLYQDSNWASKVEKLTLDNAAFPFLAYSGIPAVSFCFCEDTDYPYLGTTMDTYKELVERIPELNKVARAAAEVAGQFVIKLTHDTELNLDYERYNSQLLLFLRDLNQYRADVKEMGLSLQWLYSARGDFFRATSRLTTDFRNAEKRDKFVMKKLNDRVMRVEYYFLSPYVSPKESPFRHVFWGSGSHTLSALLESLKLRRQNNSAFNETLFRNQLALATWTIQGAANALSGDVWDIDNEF
Method: In this study, the binding of the antibody of the present disclosure to the cells were performed using a standard FACS labelling method.

[18] = target: T1, recombinant human CD71 protein; experiment: ELISA, 1 µg/mL recombinant human CD71 (second value)
Method: as §1

[19] = target: T1, recombinant human CD71 protein; experiment: ELISA, 1 µg/mL CD71 on copper or nickel plates
Method: as §1

[20] = target: T2, human CD71 (transferrin receptor …); experiment: FACS on BxPC3 cells
recombinant mouse CD71 = recombinant mouse CD71 (mouse, UniProt Q62351 89-763, limits assumed); experiment: ELISA, recombinant CD71 (1 µg/mL) on plates, anti-human IgG-HRP
Chain of recombinant mouse CD71 (Q62351 89-763 limits assumed): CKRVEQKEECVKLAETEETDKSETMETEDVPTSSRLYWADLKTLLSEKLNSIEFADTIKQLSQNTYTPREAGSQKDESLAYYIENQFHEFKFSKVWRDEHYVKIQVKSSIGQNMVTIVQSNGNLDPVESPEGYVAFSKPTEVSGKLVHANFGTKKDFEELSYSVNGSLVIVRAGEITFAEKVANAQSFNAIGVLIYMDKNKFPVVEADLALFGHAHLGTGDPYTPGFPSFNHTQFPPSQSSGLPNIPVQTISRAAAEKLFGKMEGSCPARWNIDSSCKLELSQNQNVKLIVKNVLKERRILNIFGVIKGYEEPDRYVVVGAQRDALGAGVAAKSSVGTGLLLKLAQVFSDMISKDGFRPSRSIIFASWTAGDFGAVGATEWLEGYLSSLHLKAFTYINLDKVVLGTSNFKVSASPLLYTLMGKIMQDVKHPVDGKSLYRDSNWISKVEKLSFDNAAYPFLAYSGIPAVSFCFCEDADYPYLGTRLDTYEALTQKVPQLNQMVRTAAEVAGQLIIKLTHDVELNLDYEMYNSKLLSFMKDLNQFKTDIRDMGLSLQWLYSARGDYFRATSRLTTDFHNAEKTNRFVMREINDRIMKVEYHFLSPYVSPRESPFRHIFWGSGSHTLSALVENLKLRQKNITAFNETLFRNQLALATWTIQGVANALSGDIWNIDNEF

[21] = target: T2, human CD71 (transferrin receptor …); experiment: FACS on MDA MB 231 cells
Method: as §3

[22] = target: T2, human CD71 (transferrin receptor …); experiment: FACS on BxPC3 cells; remark: listed apart in the source
Method: as §3

[23] = target: T2, human CD71 (transferrin receptor …); experiment: FACS on DMS 153 cells
Method: (§4) In this study, the binding of the antibodies and ADCs of the present disclosure to the indicated cell lines were performed using a standard FACS labelling method.

[24] = target: T2, human CD71 (transferrin receptor …); experiment: FACS on HT29 cells
Method: as §3

[25] = target: T2, human CD71 (transferrin receptor …); experiment: FACS on H292 cells; remark: listed apart in the source
Method: as §2

[26] = target: T2, human CD71 (transferrin receptor …); experiment: FACS on DMS 79 cells
Method: as §4

[27] = target: T1, recombinant human CD71 protein; experiment: ELISA, 1 µg/mL CD71 on nickel plates
[28] = target: T2, human CD71 (transferrin receptor …); experiment: FACS on FaDu cells
Method: as §3

[29] = target: T2, human CD71 (transferrin receptor …); experiment: FACS on MDA MB 231 cells; remark: listed apart in the source
Method: as §3

[30] = target: T1, recombinant human CD71 protein; experiment: ELISA, 1 µg/mL recombinant human CD71
Method: as §1

T1 sequence (P02786 89-760 limits assumed): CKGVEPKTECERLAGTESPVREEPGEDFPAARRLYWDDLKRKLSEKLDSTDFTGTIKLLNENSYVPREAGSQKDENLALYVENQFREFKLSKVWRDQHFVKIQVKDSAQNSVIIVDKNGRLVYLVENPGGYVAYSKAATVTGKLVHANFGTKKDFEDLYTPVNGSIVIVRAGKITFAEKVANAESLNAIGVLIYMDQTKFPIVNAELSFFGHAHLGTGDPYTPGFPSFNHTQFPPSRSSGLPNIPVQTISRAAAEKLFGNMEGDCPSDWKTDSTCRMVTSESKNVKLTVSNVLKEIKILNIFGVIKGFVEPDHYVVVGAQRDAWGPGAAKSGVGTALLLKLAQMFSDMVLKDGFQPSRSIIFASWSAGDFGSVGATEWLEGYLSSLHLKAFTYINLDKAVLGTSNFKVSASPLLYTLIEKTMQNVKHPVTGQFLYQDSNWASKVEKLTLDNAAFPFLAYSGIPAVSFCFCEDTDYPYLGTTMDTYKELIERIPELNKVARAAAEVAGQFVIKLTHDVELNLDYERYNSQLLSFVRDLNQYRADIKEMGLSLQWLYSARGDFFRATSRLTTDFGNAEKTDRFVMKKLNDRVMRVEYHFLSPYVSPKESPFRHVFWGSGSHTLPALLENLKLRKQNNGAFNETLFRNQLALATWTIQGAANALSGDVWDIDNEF

ME (masking efficiency) [1]: 65 fold
Kd [2]: 2.53 nM
Kd [3]: 27.5 nM
Bmax (MFI) [4]: 2210 MFI
Kd [4]: 92.3 nM
Kd [5]: 9.14 nM
ME (masking efficiency) [6]: 42 fold
Kd [7]: ~200 nM
Kd [8]: 13 nM
B1: anti-human CD71 TF02.13-2001 activatable antibody (antibody, human IgG1, kappa)
heavy: not shown
light: QGQSGQGNLCTEHSAALDCRSYGGGSSGGSISSGLLSGRSDNHGGGSDIQMTQSPSSLSASVGDRVTITCSASSSVYYMYWFQQKPGKAPKLWIYSTSNLASGVPSRFSGSGSGTDYTLTISSMQPEDFATYYCQQRRNYPYTFGQGTKLEIKRTVAAPSVFIFPPSDEQLKSGTASVVCLLNNFYPREAKVQWKVDNALQSGNSQESVTEQDSKDSTYSLSSTLTLSKADYEKHKVYACEVTHQGLSSPVTKSFNRGEC

ME (masking efficiency) [9]: 38 fold
ME (masking efficiency) [10]: 43 fold
Kd [11]: 15.4 nM
ME (masking efficiency) [1]: 11 fold
ME (masking efficiency) [12]: 39 fold
Kd [13]: 36.4 nM
ME (masking efficiency) [14]: 39 fold
Kd [15]: 32 nM
Kd [16]: 19.7 nM
Kd [5]: 1.59 nM
ME (masking efficiency) [6]: 9 fold
Kd [8]: 3 nM
B2: anti-human CD71 TF02.18-2001 activatable antibody (antibody, human IgG1, kappa)
heavy: not shown
light: QGQSGQGCTEHSFALDCGGGSSGGSISSGLLSGRSDNHGGGSDIQMTQSPSSLSASVGDRVTITCSASSSVYYMYWFQQKPGKAPKLWIYSTSNLASGVPSRFSGSGSGTDYTLTISSMQPEDFATYYCQQRRNYPYTFGQGTKLEIKRTVAAPSVFIFPPSDEQLKSGTASVVCLLNNFYPREAKVQWKVDNALQSGNSQESVTEQDSKDSTYSLSSTLTLSKADYEKHKVYACEVTHQGLSSPVTKSFNRGEC
notes: also called CD71-ActAb 2

Kd [17]: ~3 nM
Kd [18]: 0.162 nM
Kd [19]: 0.14 nM
Kd [20]: ~3 nM
binding result (recombinant mouse CD71): no binding
Kd [21]: 0.84 nM
Kd [22]: 0.81 nM
Kd [23]: 4.47 nM
Bmax (MFI) [4]: 1820 MFI
Kd [4]: 1.53 nM
Kd [24]: 0.51 nM
Kd [25]: 0.441 nM
Kd [26]: 0.898 nM
Kd [27]: 0.3 nM
Kd [28]: 0.39 nM
Kd [29]: 1.03 nM
Kd [30]: 0.255 nM
Kd [7]: 5 nM
B3: Ab21.12 LcB:HcC (antibody, human IgG1, kappa)
heavy: not shown
light: DIQMTQSPSSLSASVGDRVTITCSASSSVYYMYWFQQKPGKAPKLWIYSTSNLASGVPSRFSGSGSGTDYTLTISSMQPEDFATYYCQQRRNYPYTFGQGTKLEIKRTVAAPSVFIFPPSDEQLKSGTASVVCLLNNFYPREAKVQWKVDNALQSGNSQESVTEQDSKDSTYSLSSTLTLSKADYEKHKVYACEVTHQGLSSPVTKSFNRGEC

Kd [23]: 2.3 nM
Kd [26]: 1.09 nM
B4: anti-human CD71 Ab21.12-Duoc (antibody, human IgG1, kappa)
heavy: not shown
light: B3 light
modifications: duocarmycin conjugated to the antibody; chain and residues not stated
notes: antibody drug conjugate of Ab21.12; also called anti-human CD71 antibody conjugated to duocarmycin

ME (masking efficiency) [9]: 46 fold
ME (masking efficiency) [10]: 43 fold
Kd [11]: 14.7 nM
ME (masking efficiency) [12]: 38 fold
Kd [2]: 0.813 nM
Kd [13]: 35.2 nM
Kd [3]: 10.2 nM
ME (masking efficiency) [14]: 45 fold
Kd [15]: 38.8 nM
Bmax (MFI) [4]: 1820 MFI
Kd [4]: 52.1 nM
Kd [16]: 23 nM
Kd [29]: 30.6 nM
Kd [7]: ~200 nM
B5: anti-human CD71 TF02.13-3001 activatable antibody (antibody, human IgG1, kappa)
heavy: not shown
light: QGQSGQGNLCTEHSAALDCRSYGGGSSGGSAVGLLAPPGGLSGRSDNHGGSDIQMTQSPSSLSASVGDRVTITCSASSSVYYMYWFQQKPGKAPKLWIYSTSNLASGVPSRFSGSGSGTDYTLTISSMQPEDFATYYCQQRRNYPYTFGQGTKLEIKRTVAAPSVFIFPPSDEQLKSGTASVVCLLNNFYPREAKVQWKVDNALQSGNSQESVTEQDSKDSTYSLSSTLTLSKADYEKHKVYACEVTHQGLSSPVTKSFNRGEC
notes: also called CD71-ActAb 1
